Results: patent US20240409658A1 (Seagen, published 2024)
Read-outs that look alike come from different tables or passages of the source.

What was measured:
[1] = target: human CD228 (R&D Systems Custom02; Lot DCWR021505A) (human) (UniProt P08582); assay: ELISA on plate-coated human CD228, pH 4
[2] = target: human CD228 (R&D Systems Custom02; Lot DCWR021505A) (human) (UniProt P08582); assay: ELISA on plate-coated human CD228, pH 5.1
[3] = target: human CD228 (R&D Systems Custom02; Lot DCWR021505A) (human) (UniProt P08582); assay: ELISA on plate-coated human CD228, pH 5.6
[4] = target: human CD228 (R&D Systems Custom02; Lot DCWR021505A) (human) (UniProt P08582); assay: ELISA on plate-coated human CD228, pH 5.9
[5] = target: human CD228 (R&D Systems Custom02; Lot DCWR021505A) (human) (UniProt P08582); assay: ELISA on plate-coated human CD228, pH 6.3
[6] = target: human CD228 (R&D Systems Custom02; Lot DCWR021505A) (human) (UniProt P08582); assay: ELISA on plate-coated human CD228, pH 7.1
[7] = target: human CD228 (R&D Systems Custom02; Lot DCWR021505A) (human) (UniProt P08582); assay: ELISA on plate-coated human CD228, pH 7.4
[8] = target: human CD228 (R&D Systems Custom02; Lot DCWR021505A) (human) (UniProt P08582); assay: ELISA on plate-coated human CD228, pH 7.5
[9] = target: human CD228 (R&D Systems Custom02; Lot DCWR021505A) (human) (UniProt P08582); assay: ELISA on plate-coated human CD228, pH 4.55
[10] = target: human CD228 (R&D Systems Custom02; Lot DCWR021505A) (human) (UniProt P08582); assay: ELISA on plate-coated human CD228, pH 6.66
[11] = target: T1, human CD228 on the cell surface (RPMI-7951 cells stably expressing human CD228; A375 cells) (human) (UniProt P08582); assay: competition flow cytometry, RPMI-7951 cells stably expressing human CD228; competitor 5 nM AF647-labeled mL49; unlabeled antibody 0.06-1000 nM
T1 sequence (looked up): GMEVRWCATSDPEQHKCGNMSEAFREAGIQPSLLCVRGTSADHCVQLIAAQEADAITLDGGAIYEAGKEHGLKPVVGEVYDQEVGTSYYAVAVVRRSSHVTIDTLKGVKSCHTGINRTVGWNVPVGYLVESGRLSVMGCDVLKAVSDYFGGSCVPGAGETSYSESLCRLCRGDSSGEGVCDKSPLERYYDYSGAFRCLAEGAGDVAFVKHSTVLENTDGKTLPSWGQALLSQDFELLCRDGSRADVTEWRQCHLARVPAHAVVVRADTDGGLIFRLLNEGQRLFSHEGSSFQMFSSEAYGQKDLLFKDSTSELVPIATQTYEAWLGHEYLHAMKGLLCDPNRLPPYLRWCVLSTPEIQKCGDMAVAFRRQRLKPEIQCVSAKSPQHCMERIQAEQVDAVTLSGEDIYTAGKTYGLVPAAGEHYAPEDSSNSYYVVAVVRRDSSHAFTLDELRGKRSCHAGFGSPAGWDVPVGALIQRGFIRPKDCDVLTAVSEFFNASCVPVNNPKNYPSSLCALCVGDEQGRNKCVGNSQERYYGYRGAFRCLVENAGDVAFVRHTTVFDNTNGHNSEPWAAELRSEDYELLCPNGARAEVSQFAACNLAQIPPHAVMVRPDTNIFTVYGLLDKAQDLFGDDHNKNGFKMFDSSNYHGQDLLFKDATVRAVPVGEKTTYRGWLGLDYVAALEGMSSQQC

[12] = target: T2, human CD228 on the cell surface (RPMI-7951 cells stably expressing human CD228; A375 cells) (human, UniProt P08582 20-709); assay: saturation binding by flow cytometry on RPMI-7951 cells stably expressing human CD228; apparent KD
T2 construct: whole, on cells; also called p97; melanotransferrin
T2 sequence (looked up): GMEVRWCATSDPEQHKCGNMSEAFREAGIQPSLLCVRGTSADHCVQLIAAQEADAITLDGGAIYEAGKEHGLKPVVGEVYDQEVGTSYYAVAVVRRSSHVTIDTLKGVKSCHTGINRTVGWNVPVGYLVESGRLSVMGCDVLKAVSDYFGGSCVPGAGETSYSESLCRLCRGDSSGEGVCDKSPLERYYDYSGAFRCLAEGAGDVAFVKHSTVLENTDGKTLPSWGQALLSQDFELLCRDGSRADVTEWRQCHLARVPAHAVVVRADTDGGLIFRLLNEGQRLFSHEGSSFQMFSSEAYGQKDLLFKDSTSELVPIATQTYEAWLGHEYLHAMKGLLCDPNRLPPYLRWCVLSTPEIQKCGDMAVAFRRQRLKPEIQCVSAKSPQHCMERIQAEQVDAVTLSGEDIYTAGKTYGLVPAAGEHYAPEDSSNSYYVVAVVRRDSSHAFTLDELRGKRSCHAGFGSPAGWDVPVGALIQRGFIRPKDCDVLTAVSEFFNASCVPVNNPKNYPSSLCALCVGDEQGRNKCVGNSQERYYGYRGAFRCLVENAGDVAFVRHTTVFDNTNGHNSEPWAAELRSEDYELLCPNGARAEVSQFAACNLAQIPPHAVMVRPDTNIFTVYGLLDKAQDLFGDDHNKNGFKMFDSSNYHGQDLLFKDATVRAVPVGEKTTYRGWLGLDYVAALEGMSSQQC
Description: (§1) The KD for each resulting antibody was then determined by a saturation binding assay. Briefly, 1×10⁵ RPMI-7951 cells stably expressing human CD228 were aliquoted per well of a 96-well v-bottom plates. Each CD228 antibody was added in concentrations ranging from 0.05 pM to 340 nM and incubated on ice for 60 minutes. Cells were pelleted and washed 3× with PBS/BSA followed by addition of 10 ug/ml of a PE labeled anti-human IgG goat secondary antibody and incubated on ice for an additional 60 minutes. Cells were pelleted and washed 3× with PBS/BSA and resuspended in 125 μL of PBS/BSA. Fluorescence was analyzed by flow cytometry, using percent of saturated fluorescent signal to determine percent bound and to subsequently calculate apparent KD. The binding curves for recombinant human anti-CD228 antibodies are shown in FIG. 13 and the KD for cL49ec (chimeric LA9 with an S239C mutation in the […] constant region), hL49 HALA G1, hL49 HALB G1, and hL49 HALC G1 are shown in Table 8. The antibody called “HALC,” “hL49,” or “hL49-HALC” which comprises heavy chain “HA” and the light chain “LC” was selected for use in all other experiments.

[13] = target: T2, human CD228 on the cell surface …; assay: competition flow cytometry, RPMI-7951 cells stably expressing human CD228; competitor 5 nM AF647-labeled mL49; unlabeled antibody 0.06-1000 nM
Description: (§2) Binding curves for each resulting antibody was determined by a competition binding assay. Briefly, 1×10⁵ RPMI-7951 cells stably expressing human CD228 were aliquoted per well of a 96-well v-bottom plates on ice. […] Cells were pelleted and washed 3 times with PBS/BSA. The cells were pelleted and resuspended in 125 μL of PBS/BSA. Fluorescence was analyzed by flow cytometry, using percent of saturated fluorescent signal to determine percent labeled murine CD228 mAb bound.

[14] = target: T2, human CD228 on the cell surface …; assay: as above; remark: listed apart in the source
Description: as §2

[15] = target: T2, human CD228 on the cell surface …; assay: as above; remark: listed apart in the source
Description: as §2

[16] = target: T2, human CD228 on the cell surface …; assay: as above; remark: listed apart in the source
Description: as §2

[17] = target: T2, human CD228 on the cell surface …; assay: saturation binding by flow cytometry, RPMI-7951 cells stably expressing human CD228; PE anti-human IgG secondary; row 'ug/mL' of the drawn table headed 'kD'
Description: as §1

cL235 (antibody)
EC50 [1]: 0.809 nM
EC50 [2]: 0.756 nM
EC50 [3]: 0.74 nM
EC50 [4]: 0.838 nM
EC50 [5]: 0.749 nM
EC50 [6]: 0.724 nM
EC50 [7]: 0.767 nM
EC50 [8]: 0.694 nM
EC50 [9]: 0.727 nM
EC50 [10]: 0.757 nM

B1: hL49ec HCLA (antibody, V domains shown)
VH: QVQLQESGPGLVKPSETLSLTCTVSGDSITSGYWNWIRQFPGKGLEYMGYISDSGITYYNPSLKSRITISRDTSKNQYSLKLSFVTAADTAVYNCARRTLATYYAMDYWGQGTLVTVSS
VL: DFVMTQSPLSLPVTLGQPASISCRASQSLVHSNGNTYLHWFQQRPGQSPRRLIYRVSNRFSGVPDRFSGSGSGTDFTLKISRVEAEDVGVYYCSQSTHVPPTFGQGTKLEIK
IC50 (read off the curve) [11]: 60 nM

B2: hL49ec HBLA (antibody, V domains shown)
VH: QVQLQESGPGLVKPSETLSLTCTVSGDSITSGYWNWIRQFPGKGLEYMGYISDSGITYYNPSLKSRITISRDTSKNQYSLKLSSVTAADTAVYYCARRTLATYYAMDYWGQGTLVTVSS
VL: DFVMTQSPLSLPVTLGQPASISCRASQSLVHSNGNTYLHWFQQRPGQSPRRLIYRVSNRFSGVPDRFSGSGSGTDFTLKISRVEAEDVGVYYCSQSTHVPPTFGQGTKLEIK
IC50 (read off the curve) [11]: 40 nM

B3: hL49ec HBLB (antibody, V domains shown)
VH: QVQLQESGPGLVKPSETLSLTCTVSGDSITSGYWNWIRQFPGKGLEYMGYISDSGITYYNPSLKSRITISRDTSKNQYSLKLSSVTAADTAVYYCARRTLATYYAMDYWGQGTLVTVSS
VL: DFVMTQSPLSLPVTLGQPASISCRASQSLVHSNGNTYLHWYQQRPGQSPRLLIYRVSNRFSGVPDRFSGSGSGTDFTLKISRVEAEDVGVYYCSQSTHVPPTFGQGTKLEIK
IC50 (read off the curve) [11]: 30 nM

B4: hL49ec HCLB (antibody, V domains shown)
VH: QVQLQESGPGLVKPSETLSLTCTVSGDSITSGYWNWIRQFPGKGLEYMGYISDSGITYYNPSLKSRITISRDTSKNQYSLKLSFVTAADTAVYNCARRTLATYYAMDYWGQGTLVTVSS
VL: DFVMTQSPLSLPVTLGQPASISCRASQSLVHSNGNTYLHWYQQRPGQSPRLLIYRVSNRFSGVPDRFSGSGSGTDFTLKISRVEAEDVGVYYCSQSTHVPPTFGQGTKLEIK
IC50 (read off the curve) [11]: 20 nM

B5: cL49ec (chimeric L49 with an S239C mutation) (antibody, V domains shown)
VH: EVQLQESGPSLVKPSQTLSLTCSVTGDSITSGYWNWIRKFPGNKLEYMGYISDSGITYYNPSLKSRISITRDTSKNQYYLQLNFVTAEDTATYNCARRTLATYYAMDYWGQGTSVTVSS
VL: DFVMTQTPLSLPVSLGDQASISCRASQSLVHSNGNTYLHWYLQKPGQSPKLLIYRVSNRFSGVPDRFSGSGSGTDFTLKISRVEAEDLGVYFCSQSTHVPPTFGGGTKLEIK
notes: Human constant regions with S239C; also called chimeric LA9
Kd [12]: 5.8 nM
IC50 (read off the curve) [13]: ~30 nM
IC50 (read off the curve) [14]: ~30 nM
IC50 (read off the curve) [15]: ~30 nM
IC50 (read off the curve) [16]: ~30 nM
Kd [17]: 0.9 µg/mL

B6: hL49ec HALA (antibody, V domains shown)
VH: QVQLQESGPGLVKPSETLSLTCTVSGDSITSGYWNWIRQPPGKGLEYIGYISDSGITYYNPSLKSRVTISRDTSKNQYSLKLSSVTAADTAVYYCARRTLATYYAMDYWGQGTLVTVSS
VL: DFVMTQSPLSLPVTLGQPASISCRASQSLVHSNGNTYLHWFQQRPGQSPRRLIYRVSNRFSGVPDRFSGSGSGTDFTLKISRVEAEDVGVYYCSQSTHVPPTFGQGTKLEIK
notes: Same variable regions as m5 (hL49 HALA G1); The sheet prints 'ec', so it is kept apart from the G1 form; also called HALA in the 'ec' format
IC50 (read off the curve) [13]: ~40 nM
IC50 (read off the curve) [14]: ~40 nM

B7: hL49 HALA G1 (antibody, V domains shown)
VH: QVQLQESGPGLVKPSETLSLTCTVSGDSITSGYWNWIRQPPGKGLEYIGYISDSGITYYNPSLKSRVTISRDTSKNQYSLKLSSVTAADTAVYYCARRTLATYYAMDYWGQGTLVTVSS
VL: DFVMTQSPLSLPVTLGQPASISCRASQSLVHSNGNTYLHWFQQRPGQSPRRLIYRVSNRFSGVPDRFSGSGSGTDFTLKISRVEAEDVGVYYCSQSTHVPPTFGQGTKLEIK
notes: Humanized L49 with heavy chain HA and light chain LA; 'G1' (IgG1)
Kd [12]: 5.3 nM
Kd [17]: 0.8 µg/mL

B8: hL49 HALB G1 (antibody, V domains shown)
VH: QVQLQESGPGLVKPSETLSLTCTVSGDSITSGYWNWIRQPPGKGLEYIGYISDSGITYYNPSLKSRVTISRDTSKNQYSLKLSSVTAADTAVYYCARRTLATYYAMDYWGQGTLVTVSS
VL: DFVMTQSPLSLPVTLGQPASISCRASQSLVHSNGNTYLHWYQQRPGQSPRLLIYRVSNRFSGVPDRFSGSGSGTDFTLKISRVEAEDVGVYYCSQSTHVPPTFGQGTKLEIK
notes: Humanized L49 with heavy chain HA and light chain LB; 'G1' (IgG1)
Kd [12]: 7.8 nM
Kd [17]: 1.2 µg/mL

B9: hL49ec HALB (antibody, V domains shown)
VH: QVQLQESGPGLVKPSETLSLTCTVSGDSITSGYWNWIRQPPGKGLEYIGYISDSGITYYNPSLKSRVTISRDTSKNQYSLKLSSVTAADTAVYYCARRTLATYYAMDYWGQGTLVTVSS
VL: DFVMTQSPLSLPVTLGQPASISCRASQSLVHSNGNTYLHWYQQRPGQSPRLLIYRVSNRFSGVPDRFSGSGSGTDFTLKISRVEAEDVGVYYCSQSTHVPPTFGQGTKLEIK
notes: Same variable regions as m6 (hL49 HALB G1); The sheet prints 'ec', so it is kept apart from the G1 form; also called HALB in the 'ec' format
IC50 (read off the curve) [14]: 20 to 30 nM
